Paper PMC7041945, “Misfolded proteins bind and activate death receptor 5 to trigger apoptosis during unresolved endoplasmic reticulum stress” (eLife, 2020)

Tests used:
[1] = system: HCT116 cells; assay: Annexin V (and SytoxBlue) flow cytometry for apoptosis; type: cell-based, Homo sapiens; conditions: for Mean ± SEM (Prism T-tests, Annexin V for MPZ-GFP): N=3, values agree with avg Annexin V+; for avg Annexin V+ / avg Annexin V-: mean of 3 replicates; for AnnexinV+ (Statistic, single cells) / AnnexinV- (Statistic, single cells) / GFP+ (Statistic, single cells) / GFP- (Statistic, single cells) / Q1: APC-A- , DAPI-A+ (Statistic, single cells) / Q2: APC-A+ , DAPI-A+ (Statistic, single cells) / Q3: APC-A+ , DAPI-A- (Statistic, single cells) / Q4: APC-A- , DAPI-A- (Statistic, single cells) / SytoxBlue+ (Statistic, single cells) / SytoxBlue- (Statistic, single cells) / dead cells (Statistic) / FITC-A+ (Statistic, dead cells) / FITC-A- (Statistic, dead cells): 2018-01-17 MPZ; for AnnexinV+ (Statistic, single cells): gate all cells/Single Cells/AnnexinV+; for AnnexinV- (Statistic, single cells): gate all cells/Single Cells/AnnexinV-; for GFP+ (Statistic, single cells): gate all cells/Single Cells/GFP+; for GFP- (Statistic, single cells): gate all cells/Single Cells/GFP-; for Q1: APC-A- , DAPI-A+ (Statistic, single cells): gate all cells/Single Cells/Q1; for Q2: APC-A+ , DAPI-A+ (Statistic, single cells): gate all cells/Single Cells/Q2; for Q3: APC-A+ , DAPI-A- (Statistic, single cells): gate all cells/Single Cells/Q3; for Q4: APC-A- , DAPI-A- (Statistic, single cells): gate all cells/Single Cells/Q4; for SytoxBlue+ (Statistic, single cells): gate all cells/Single Cells/SytoxBlue+; for SytoxBlue- (Statistic, single cells): gate all cells/Single Cells/SytoxBlue-; for dead cells (Statistic): gate dead cells of all events; for FITC-A+ (Statistic, dead cells): gate dead cells/Single Cells/FITC-A+; for FITC-A- (Statistic, dead cells): gate dead cells/Single Cells/FITC-A-
Experimental: Cells seeded in a 6-well plate were transfected with the specified plasmid for 24 hr and harvested via trypsinization in complete media to allow a 30 min recovery at 37°C. The samples were then centrifuged at 500xg for 5 min and resuspended In 150 μl of a 1:20 dilution of Annexin V-AlexaFluor 647 conjugate (Thermo Scientific #A23204). Samples were transferred to a 96-well U-bottom plate and incubated in the dark for 15 min at RT. The distribution of apoptotic cells was determined by flow cytometry on a BD LSR II.

[2] = system: caspase 8 in HCT116 lysates; assay: Size-exclusion chromatography of cell lysates with caspase 8 activity; type: cell-based, Homo sapiens; conditions: relative to GFP; 24 hr
Experimental: Size-exclusion fractionation of cell lysate was performed as previously described in [Lu et al. (2014)] with minor modifications.
In a 15 cm dish, 4 million HCT116 cells were seeded 18 hr prior to transfection (see Transient transfections for protein expression). 24 hr post-transfection, cells were harvested by collecting all media (to collect detached, dying cells) and scraping the dish in 3 ml of cold PBS. The cell suspension was centrifuged at 500xg to pellet the sample. Cells were washed with an additional 1 ml of cold PBS, pelleted, and flash frozen in liquid N2 prior to lysis.
Cells were resuspended in 600 μl of lysis buffer (30 mM HEPES pH 7.2, 150 mM NaCl, 1% Triton X-100) with 1x protease inhibitor (Roche) and lysed through a 25G needle with 10 passes. […]
For the caspase 8 activity assay, 10 μl of each fraction was incubated with 10 μl of the caspase glo 8 substrate (Promega #PRG8200) in a 384-well white walled plate (Corning 3574) for 45 min at RT before measuring luminescence on a Spectramax-M5 plate reader.
For Western blots, every three fractions were pooled for a total of 1.5 ml and subjected to TCA precipitation to concentrate the protein content. Samples were then analyzed by SDS-PAGE and immunoblotted for GFP and DR5.

[3] = siRNA DR5 (siDR5), 2017-01-17 Replicate
[4] = siRNA DR5 (siDR5), 2018-06-21 Rep 1
[5] = siRNA DR5 (siDR5), 2018-06-21 Rep 2
[6] = siRNA scrambled, 2017-01-17 Replicate
[7] = siRNA scrambled, Tg sample with empty construct
[8] = siRNA scrambled, 2018-06-21 Rep 1
[9] = siRNA scrambled, 2018-06-21 Rep 2

B1: MPZ-GFP: myelin protein zero with a C-terminal monomeric EGFP, expressed from plasmid (protein)
chain: IVVYTDREVHGAVGSRVTLHCSFWSSEWVSDDISFTWRYQPEGGRDAISIFHYAKGQPYIDEVGTFKERIQWVGDPRWKDGSIVIHNLDYSDNGTFTCDVKNPPDIVGKTSQVTLYVFEKVPTRYGVVLGAVIGGVLGVVLLLLLLFYVVRYCWLRRQAALQRRLSAMEKGKLHKPGKDASKRGRQTPVLYAMLDHSRSTKAVSEKKAKGLGESRKDKK
modifications: left off: monomeric EGFP, C-terminal, kept
notes: myelin protein zero with a C-terminal monomeric EGFP, expressed from plasmid
- Difference between means ([1]; MPZ-GFP siDR5 vs. MPZ-GFP): -18 ± 5.2
- Mean ± SEM (Fig 1S2D) ([1]; MPZ-GFP, mean ± SEM, n=3): 37.91 ± 5.341, n=3
- Mean ± SEM (Prism T-tests, Annexin V for MPZ-GFP) ([1]; no siDR5, mean ± SEM): 33 ± 4.7 N=3
- Mean ± SEM (Prism T-tests, Annexin V for MPZ-GFP) ([1]; siDR5, mean ± SEM): 15 ± 2.3 N=3
- Annexin V+ [1, 3]: 10.4
- Annexin V- [1, 3]: 89.6
- Annexin V+ [1, 4]: 17
- Annexin V- [1, 4]: 83
- Annexin V+ [1, 5]: 17.8
- Annexin V- [1, 5]: 82.2
- avg Annexin V+ ([1]; siRNA DR5 (siDR5)): 15.0667
- avg Annexin V- ([1]; siRNA DR5 (siDR5)): 84.9333
- AnnexinV+ (Statistic, single cells) ([1]; siRNA DR5): 10.4
- AnnexinV- (Statistic, single cells) ([1]; siRNA DR5): 89.6
- GFP+ (Statistic, single cells) ([1]; siRNA DR5): 40.8
- GFP- (Statistic, single cells) ([1]; siRNA DR5): 59.2
- Q1: APC-A- , DAPI-A+ (Statistic, single cells) ([1]; siRNA DR5): 1.26
- Q2: APC-A+ , DAPI-A+ (Statistic, single cells) ([1]; siRNA DR5): 8.07
- Q3: APC-A+ , DAPI-A- (Statistic, single cells) ([1]; siRNA DR5): 1.36
- Q4: APC-A- , DAPI-A- (Statistic, single cells) ([1]; siRNA DR5): 89.3
- SytoxBlue+ (Statistic, single cells) ([1]; siRNA DR5): 9.1
- SytoxBlue- (Statistic, single cells) ([1]; siRNA DR5): 90.9
- dead cells (Statistic) ([1]; siRNA DR5): 6.03
- FITC-A+ (Statistic, dead cells) ([1]; siRNA DR5): 43.4
- FITC-A- (Statistic, dead cells) ([1]; siRNA DR5): 56.6
- AnnexinV+ (Statistic, single cells) ([1]; siRNA TRAIL): 20.8
- AnnexinV- (Statistic, single cells) ([1]; siRNA TRAIL): 79.2
- GFP+ (Statistic, single cells) ([1]; siRNA TRAIL): 47.9
- GFP- (Statistic, single cells) ([1]; siRNA TRAIL): 52.1
- Q1: APC-A- , DAPI-A+ (Statistic, single cells) ([1]; siRNA TRAIL): 2.56
- Q2: APC-A+ , DAPI-A+ (Statistic, single cells) ([1]; siRNA TRAIL): 16.8
- Q3: APC-A+ , DAPI-A- (Statistic, single cells) ([1]; siRNA TRAIL): 2.29
- Q4: APC-A- , DAPI-A- (Statistic, single cells) ([1]; siRNA TRAIL): 78.3
- SytoxBlue+ (Statistic, single cells) ([1]; siRNA TRAIL): 18.9
- SytoxBlue- (Statistic, single cells) ([1]; siRNA TRAIL): 81.1
- dead cells (Statistic) ([1]; siRNA TRAIL): 10.4
- FITC-A+ (Statistic, dead cells) ([1]; siRNA TRAIL): 43.4
- FITC-A- (Statistic, dead cells) ([1]; siRNA TRAIL): 56.6
- Annexin V+ [1, 6]: 41.8
- Annexin V- [1, 6]: 58.2
- AnnexinV+ (Statistic, single cells) [1, 7]: 41.8
- AnnexinV- (Statistic, single cells) [1, 7]: 58.2
- GFP+ (Statistic, single cells) [1, 7]: 60.1
- GFP- (Statistic, single cells) [1, 7]: 39.9
- Q1: APC-A- , DAPI-A+ (Statistic, single cells) [1, 7]: 10.7
- Q2: APC-A+ , DAPI-A+ (Statistic, single cells) [1, 7]: 31.7
- Q3: APC-A+ , DAPI-A- (Statistic, single cells) [1, 7]: 8.04
- Q4: APC-A- , DAPI-A- (Statistic, single cells) [1, 7]: 49.5
- SytoxBlue+ (Statistic, single cells) [1, 7]: 40
- SytoxBlue- (Statistic, single cells) [1, 7]: 60
- dead cells (Statistic) [1, 7]: 22
- FITC-A+ (Statistic, dead cells) [1, 7]: 37.6
- FITC-A- (Statistic, dead cells) [1, 7]: 62.4
- Annexin V+ [1, 8]: 25.8
- Annexin V- [1, 8]: 74.2
- Annexin V+ [1, 9]: 32
- Annexin V- [1, 9]: 68
- avg Annexin V+ ([1]; siRNA scrambled): 33.2
- avg Annexin V- ([1]; siRNA scrambled): 66.8
- caspase 8 activity in high MW size exclusion fractions [2]: increased caspase 8 activity in high-molecular w8 (MW) fractions
